Experimental data published in PMC10718530.

Key:
[1] = target: MreB from Geobacillus stearothermophilus (MreB^Gs), wild type, 6-histidine-tagged (Geobacillus stearothermophilus ATCC 7953); assay: negative-stain electron microscopy; standard conditions with the lipid monolayer but without ATP
[2] = target: MreB from Geobacillus stearothermophilus (MreB^Gs), wild type, 6-histidine-tagged (Geobacillus stearothermophilus ATCC 7953); assay: negative-stain electron microscopy; standard conditions (2 mM ATP, 100 mM KCl, MreB 1.34 µM) without lipids, in solution; untreated or glow-discharged grids
[3] = target: MreB from Geobacillus stearothermophilus (MreB^Gs), wild type, 6-histidine-tagged (Geobacillus stearothermophilus ATCC 7953); assay: negative-stain electron microscopy; MreB 1.34 µM (0.27-1.34 µM in the concentration series) under a monolayer of E. coli total lipid extract; 20 mM Tris pH 7, 100 mM KCl, 2 mM ATP, 5 mM Mg2+, 1-2 h at 25-37 °C; untreated carbon grids; 12 fields a grid scored for pairs of protofilaments; 2D averaging of 1554 particles

percent of EM fields with polymers [1]: 4 % of fields | percent of EM fields with polymers [2]: 8 % of fields | critical concentration of polymerization [3]: 0.45 µM | percent of EM fields with polymers [3]: 100 % of fields
Substance: MreB from Geobacillus stearothermophilus (MreB^Gs), wild type, 6-histidine-tagged (natural protein)
